Reference: the supplement of paper PMC7877785
± gives the uncertainty stated by the source.

Assay: self-splicing fitness, log relative to wild type (ln ratio); higher = more splicing; Tetrahymena group I intron in knt gene, E. coli kanamycin selection, DiMSum; sequences stand for … in CUCUCU…GGAGGGAAAAGUUAUCAGGCAUGCACCUGGUAGCUAGUCUUUAAACCAAUAGAUUGCAUCGGUUUAAAAGGCAAGACCGUCAAAUUGCGGGAAAGGGGUCAACAGCCGUUCAGUACCAAGUCUCAGGGGAAACUUUGAGAUGGCCUUGCAAAGGGUAUGGUAAUAAGCUGACGGACAUGGUCCUAACCACGCAGCCAAGUCCUAAGUCAACAGAUCUUCUGUUGAUAUGGAUGCAGUUCACAGACUAAAUGUCGGUCGGGGAAGAUGUAUUCUUCUCAUAAGAUAUAGUCGGACCUCUCCUUAAUGGGAGCUAGCGGAUGAAGUGAUGCAACACUGGAGCCGCUGGGAACUAAUUUGUAUGCGAAAGUAUAUUGAUUAGUUUUGGAGUACUCGUGGUCG
Method in brief: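 Pooled colonies went to amplicon sequencing on an Illumina HiSeq 2500 after six replicate transformations. The plates were LB agar with 100 μg/mL carbenicillin, 50 μM IPTG and 0.2% rhamnose, with or without 25 μg/mL kanamycin, incubated overnight at 37°C or 30°C. The E. coli BL21(DE3) library had all eight P1ex-region intron nucleotides randomised, the intron placed in the knt kanamycin-resistance gene on pET-22b(+). DiMSum fitness is the error-weighted combination of replicate fold changes, kanamycin against none, normalised to wild type.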

Sequence | self-splicing fitness (ln) (30 °C) | self-splicing fitness (ln) (37 °C)
GACGAGCAAUAUUACGAAAC | -4.29 ± 0.3 | -3.14 ± 0.28
GACGAGCAAUAUUACGAAGA | -3.31 ± 0.27 | –
GACGAGCAAUAUUACGACCU | -2.01 ± 0.15 | 0.0378 ± 0.16
GACGAGCAAUAUUACGACGU | -2.31 ± 0.23 | -1.13 ± 0.25
GACGAGCAAUAUUACGAUGC | -3.82 ± 0.44 | -0.275 ± 0.21
GACGAGCAAUAUUACGCACC | -3.06 ± 0.15 | -0.796 ± 0.12
GACGAGCAAUAUUACGCCGU | -2.58 ± 0.45 | –
GACGAGCAAUAUUACGCGGA | -2.74 ± 0.23 | -2.87 ± 0.36
GACGAGCAAUAUUACGCGGC | -3.25 ± 0.29 | –
GACGAGCAAUAUUACGCUAU | -3.39 ± 0.2 | -2.42 ± 0.25
GACGAGCAAUAUUACGCUGG | – | -2.79 ± 0.43
GACGAGCAAUAUUACGGACU | -0.448 ± 0.15 | -0.75 ± 0.18
GACGAGCAAUAUUACGGAGC | -4.4 ± 0.39 | -2.27 ± 0.22
GACGAGCAAUAUUACGGAUA | -2.52 ± 0.24 | -2.55 ± 0.44
GACGAGCAAUAUUACGGCCA | – | 0.241 ± 0.29
GACGAGCAAUAUUACGGCCU | -1.85 ± 0.096 | -1.12 ± 0.14
GACGAGCAAUAUUACGGCUC | -2.6 ± 0.12 | -1.41 ± 0.15
GACGAGCAAUAUUACGGCUG | -1.82 ± 0.13 | -1.13 ± 0.13
GACGAGCAAUAUUACGGGGA | -3.12 ± 0.22 | -2.37 ± 0.29
GACGAGCAAUAUUACGGUCC | -3.83 ± 0.25 | -1.74 ± 0.23
GACGAGCAAUAUUACGUAUU | -3.7 ± 0.21 | -2.44 ± 0.18
GACGAGCAAUAUUACGUGAA | – | -2.29 ± 0.32
GACGAGCAAUAUUACGUGCC | -1.56 ± 0.14 | -1.97 ± 0.26
GACGAGCAAUAUUACGUGUA | -5.08 ± 0.25 | -2.49 ± 0.14
GACGAGCAAUAUUACGUUGG | -3.34 ± 0.12 | -3.25 ± 0.22
GACGAGCAAUAUUACGUUUA | -2.06 ± 0.14 | -0.752 ± 0.12

Sequence | self-splicing fitness (ln) (30 °C) | self-splicing fitness (ln) (37 °C)
GACUAGCAAUAUUACGAAUG | -2.65 ± 0.18 | -1.93 ± 0.17
GACUAGCAAUAUUACGACGG | -2.2 ± 0.24 | -1.78 ± 0.35
GACUAGCAAUAUUACGAGCA | -1.51 ± 0.14 | -0.564 ± 0.13
GACUAGCAAUAUUACGAUAA | -0.678 ± 0.12 | -0.492 ± 0.13
GACUAGCAAUAUUACGCUCC | -3.46 ± 0.47 | –
GACUAGCAAUAUUACGCUGC | -3.53 ± 0.21 | -2.85 ± 0.28
GACUAGCAAUAUUACGCUGG | -3.18 ± 0.21 | -2.13 ± 0.25
GACUAGCAAUAUUACGGAAA | -1.53 ± 0.14 | -0.989 ± 0.14
GACUAGCAAUAUUACGGGGU | -4.18 ± 0.17 | -2.91 ± 0.15
GACUAGCAAUAUUACGGUAU | -1.3 ± 0.074 | -0.543 ± 0.092
GACUAGCAAUAUUACGGUGG | -1.91 ± 0.072 | -1.27 ± 0.082
GACUAGCAAUAUUACGUAGU | -2.84 ± 0.18 | -2.28 ± 0.27
GACUAGCAAUAUUACGUCAU | -2.73 ± 0.17 | -1.1 ± 0.17
GACUAGCAAUAUUACGUCCG | – | -1.5 ± 0.31
GACUAGCAAUAUUACGUGAG | -2.07 ± 0.1 | -1.54 ± 0.14
GACUAGCAAUAUUACGUGCC | -1.75 ± 0.12 | -1.58 ± 0.18
GACUAGCAAUAUUACGUGCG | -1.3 ± 0.073 | -0.236 ± 0.091
GACUAGCAAUAUUACGUGGG | -3.35 ± 0.13 | -1.96 ± 0.098
GACUAGCAAUAUUACGUUGG | -2.85 ± 0.22 | -2.42 ± 0.39
GAGAAGCAAUAUUACGAAAC | -2.29 ± 0.36 | -1.71 ± 0.48
GAGAAGCAAUAUUACGCAAC | -1.48 ± 0.14 | -2.11 ± 0.26
GAGAAGCAAUAUUACGCGCU | -2.03 ± 0.13 | -1.49 ± 0.13
GAGAAGCAAUAUUACGGCAA | -0.843 ± 0.084 | 0.00427 ± 0.11
GAGAAGCAAUAUUACGGCCU | -0.28 ± 0.07 | 0.2 ± 0.089
GAGAAGCAAUAUUACGGCUU | -3.58 ± 0.33 | -1.75 ± 0.24
GAGAAGCAAUAUUACGGGUU | -1.88 ± 0.11 | -1.87 ± 0.16

Sequence | self-splicing fitness (ln) (30 °C) | self-splicing fitness (ln) (37 °C)
GAGAAGCAAUAUUACGGUGA | -1.88 ± 0.15 | -0.755 ± 0.15
GAGAAGCAAUAUUACGUAGU | -2.89 ± 0.094 | -1.39 ± 0.097
GAGAAGCAAUAUUACGUGAA | -1 ± 0.1 | -1.23 ± 0.17
GAGAAGCAAUAUUACGUGCU | -2.51 ± 0.21 | -0.848 ± 0.17
GAGAAGCAAUAUUACGUUAG | -2.54 ± 0.19 | -2.08 ± 0.19
GAGCAGCAAUAUUACGAAGA | -2.69 ± 0.45 | -1.14 ± 0.27
GAGCAGCAAUAUUACGAAGC | -3.93 ± 0.25 | -2.21 ± 0.15
GAGCAGCAAUAUUACGACAA | -1.41 ± 0.3 | -2.31 ± 0.2
GAGCAGCAAUAUUACGACCC | 0.0587 ± 0.081 | -0.0685 ± 0.098
GAGCAGCAAUAUUACGACUA | -0.925 ± 0.097 | 0.275 ± 0.11
GAGCAGCAAUAUUACGAGCG | -2.3 ± 0.092 | -1.11 ± 0.11
GAGCAGCAAUAUUACGAGGA | -2.48 ± 0.17 | -2.89 ± 0.22
GAGCAGCAAUAUUACGAUUG | -2.17 ± 0.083 | -2.41 ± 0.17
GAGCAGCAAUAUUACGCAUA | -1.11 ± 0.099 | -0.606 ± 0.14
GAGCAGCAAUAUUACGCGUG | -1.92 ± 0.15 | -1.66 ± 0.18
GAGCAGCAAUAUUACGCUCU | -3.46 ± 0.28 | –
GAGCAGCAAUAUUACGCUGA | -2.8 ± 0.19 | -2.13 ± 0.2
GAGCAGCAAUAUUACGGAAG | -3.65 ± 0.21 | -3.24 ± 0.26
GAGCAGCAAUAUUACGGCAU | -0.308 ± 0.081 | -0.549 ± 0.094
GAGCAGCAAUAUUACGGCUA | -0.634 ± 0.1 | -0.0591 ± 0.15
GAGCAGCAAUAUUACGGGUC | -3.07 ± 0.18 | -1.91 ± 0.17
GAGCAGCAAUAUUACGGUGU | -2.84 ± 0.093 | -1.56 ± 0.09
GAGCAGCAAUAUUACGUAAA | -1.89 ± 0.14 | -1.13 ± 0.14
GAGCAGCAAUAUUACGUACC | -0.46 ± 0.12 | -0.225 ± 0.14
GAGCAGCAAUAUUACGUCGG | -4.09 ± 0.31 | -3.07 ± 0.28
GAGCAGCAAUAUUACGUGAG | -2.06 ± 0.069 | -0.264 ± 0.07
